Source: patent US20250043302A1, “MUTATED HYDROXYPHENYLPYRUVATE DIOXYGENASE POLYPEPTIDE, AND CODING GENE AND USE THEREOF” (BEIJING DABEINONG BIOTECHNOLOGY CO., LTD., priority 2021, published 2025)

Key:
Type in all cases: in vivo
[1] = tested on: Arabidopsis thaliana T1 plants; experiment: Topramezone tolerance of transgenic Arabidopsis thaliana T1 plants (spray, bleached leaf area grade, damage score); settings: 7 DAT, Table 4; for Classification and statistics of the grade of pesticide damage: Grade 0 / Classification and statistics of the grade of pesticide damage: Grade 1 / Classification and statistics of the grade of pesticide damage: Grade 2 / Classification and statistics of the grade of pesticide damage: Grade 3: number of plants; for Scores: pesticide damage score 0-100
Procedure, shortened: (§1)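 T1 transformants selected by glufosinate; 18-day-old plants, with empty-vector and wild-type controls, sprayed with topramezone (25–200 g ai/ha), isoxaflutole (35–280 g ai/ha) or mesotrione (52.5–420 g ai/ha), water as 0×. Bleached leaf area fraction scored at 7 DAT as grades 0–3.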

[2] = tested on: Arabidopsis thaliana T1 plants; experiment: Mesotrione tolerance of transgenic Arabidopsis thaliana T1 plants (spray, bleached leaf area grade, damage score); set-up: Scores: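 damage score 0-100 computed as Σ(N×S)/(T×M)×100 over grades 0-3 with higher meaning more damage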; settings: Arabidopsis thaliana T1 plants; for Grade 0 (classification and statistics of the grade of pesticide damage; number of plants) / Grade 1 (classification and statistics of the grade of pesticide damage; number of plants) / Grade 2 (classification and statistics of the grade of pesticide damage; number of plants) / Grade 3 (classification and statistics of the grade of pesticide damage; number of plants): 16 plants
Procedure, shortened: as §1

[3] = tested on: Arabidopsis thaliana T1 plants; experiment: Isoxaflutole tolerance of transgenic Arabidopsis thaliana T1 plants (spray, bleached leaf area grade, damage score); set-up: Scores (pesticide damage): scale not given here; settings: spray, Arabidopsis thaliana T1 plants; for Classification and statistics of the grade of pesticide damage: Grade 0 (number of plants) / Classification and statistics of the grade of pesticide damage: Grade 1 (number of plants) / Classification and statistics of the grade of pesticide damage: Grade 2 (number of plants) / Classification and statistics of the grade of pesticide damage: Grade 3 (number of plants): 16 plants
Procedure, shortened: as §1

[4] = isoxaflutole 35 g ai/ha (0.5x field concentration)
[5] = isoxaflutole 70 g ai/ha (1x field concentration)

| Molecule | Classification and statistics of the grade of pesticide damage: Grade 0 ([1]; topramezone 25 g ai/ha (1×)) | Classification and statistics of the grade of pesticide damage: Grade 1 ([1]; topramezone 25 g ai/ha (1×)) | Classification and statistics of the grade of pesticide damage: Grade 2 ([1]; topramezone 25 g ai/ha (1×)) | Classification and statistics of the grade of pesticide damage: Grade 3 ([1]; topramezone 25 g ai/ha (1×)) | Classification and statistics of the grade of pesticide damage: Grade 0 ([1]; topramezone 100 g ai/ha (4×)) | Classification and statistics of the grade of pesticide damage: Grade 1 ([1]; topramezone 100 g ai/ha (4×)) | Classification and statistics of the grade of pesticide damage: Grade 2 ([1]; topramezone 100 g ai/ha (4×)) | Classification and statistics of the grade of pesticide damage: Grade 3 ([1]; topramezone 100 g ai/ha (4×)) | Scores ([1]; topramezone 25 g ai/ha (1×)) | Scores ([1]; topramezone 100 g ai/ha (4×)) | Resistance evaluation ([1]; topramezone 25 g ai/ha (1×)) | Resistance evaluation ([1]; topramezone 100 g ai/ha (4×)) | Resistance evaluation ([2]; mesotrione 52.5 g ai/ha) | Scores ([2]; mesotrione 52.5 g ai/ha) | Grade 0 (classification and statistics of the grade of pesticide damage; number of plants) ([2]; mesotrione 52.5 g ai/ha) | Grade 1 (classification and statistics of the grade of pesticide damage; number of plants) ([2]; mesotrione 52.5 g ai/ha) | Grade 2 (classification and statistics of the grade of pesticide damage; number of plants) ([2]; mesotrione 52.5 g ai/ha) | Grade 3 (classification and statistics of the grade of pesticide damage; number of plants) ([2]; mesotrione 52.5 g ai/ha) | Resistance evaluation ([2]; mesotrione 105 g ai/ha) | Scores ([2]; mesotrione 105 g ai/ha) | also measured |
| --- | --- | --- | --- | --- | --- | --- | --- | --- | --- | --- | --- | --- | --- | --- | --- | --- | --- | --- | --- | --- | --- |
| HvHPPDm-F372A-F383W-02: nucleotide sequence encoding Hordeum vulgare HPPD with F372A+F383W; vector DBN11765 (nucleic acid, HvHPPDm-F372A-F383W-02 Nucleotide Sequence, vector DBN11765) DNA: ATGCCGCCGACGCCCACCACCCCAGCAGCTACCGGAGCTGCGGCTGCAGTAACCCCTGAGCATGCTCGGCCCCACAGGATGGTGAGGTTTAATCCAAGATCAGATCGTTTTCATACACTCTCGTTCCACCATGTTGAGTTCTGGTGCGCCGACGCGGCTTCAGCGGCCGGGAGGTTCGCCTTCGCGCTGGGGGCCCCTCTTGCCGCGCGTAGTGATTTGTCTACTGGGAATTCAGCGCACGCGTCCCAGCTTCTCCGAAGCGGCAGTCTCGCCTTTCTCTTCACTGCACCATATGCAAATGGATGTGATGCAGCAACTGCTTCCCTGCCGAGCTTTTCTGCGGATGCCGCGAGGCGATTCAGTGCTGACCATGGGATCGCCGTCCGGTCAGTTGCTCTTAGAGTGGCTGATGCTGCTGAGGCATTCAGGGCTTCAAGGCGTCGTGGTGCACGCCCGGCGTTTGCCCCGGTTGATCTTGGGCGGGGGTTTGCTTTTGCAGAGGTGGAGCTGTACGGCGACGTGGTGCTCCGATTTGTTTCTCACCCGGACGGCACTGATGTGCCCTTCTTGCCAGGATTTGAAGGTGTGACCAACCCTGATGCCGTGGATTATGGACTCACAAGATTTGATCATGTGGTTGGCAATGTTCCTGAATTGGCACCTGCTGCCGCTTACATCGCAGGTTTTACTGGCTTCCATGAATTTGCTGAATTCACGGCGGAGGATGTTGGTACAACTGAGTCAGGGCTGAACAGTGTTGTTTTAGCCAACAACTCAGAAGGAGTTCTCCTTCCCTTGAATGAACCTGTTCATGGAACCAAGCGCCGCTCCCAAATTCAAACATTTCTTGAGCACCACGGCGGCCCTGGTGTTCAACATATTGCTGTCGCCTCTAGCGACGTCCTGCGTACATTACGCAAGATGAGGGCTCGGTCCGCAATGGGTGGTTTCGACTTCCTCCCTCCACCATTGCCAAAATATTATGAAGGCGTCAGAAGACTTGCAGGAGATGTCCTCTCTGAAGCTCAGATCAAGGAGTGCCAAGAACTTGGCGTCTTGGTTGATAGAGATGACCAAGGAGTACTTCTGCAGATAGCCACAAAACCCGTTGGTGACAGGCCAACTCTTTGGCTGGAGATGATTCAGAGAATTGGCTGCATGGAGAAAGATGAAAGAGGCGAGGAGTACCAGAAGGGTGGTTGTGGAGGCTTTGGAAAAGGAAACTTCTCAGAGCTGTTCAAGTCCATAGAAGATTACGAGAAAAGTCTAGAAGCCAAGCAGTCTGCTGCAGTGCAAGGTTCCTGA | 16 | 0 | 0 | 0 | 10 | 6 | 0 | 0 | 0 | 13 | highly | highly | Highly resistant | 8 | 12 | 4 | 0 | 0 | Moderately | 29 | Grade 0 (classification and statistics of the grade of pesticide damage; number of plants) ([2]; mesotrione 105 g ai/ha): 2; Grade 1 (classification and statistics of the grade of pesticide damage; number of plants) ([2]; mesotrione 105 g ai/ha): 14; Grade 2 (classification and statistics of the grade of pesticide damage; number of plants) ([2]; mesotrione 105 g ai/ha): 0; Grade 3 (classification and statistics of the grade of pesticide damage; number of plants) ([2]; mesotrione 105 g ai/ha): 0; Resistance evaluation [3, 4]: Moderately; Scores (pesticide damage) [3, 4]: 25; Classification and statistics of the grade of pesticide damage: Grade 0 (number of plants) [3, 4]: 4; Classification and statistics of the grade of pesticide damage: Grade 1 (number of plants) [3, 4]: 12; Classification and statistics of the grade of pesticide damage: Grade 2 (number of plants) [3, 4]: 0; Classification and statistics of the grade of pesticide damage: Grade 3 (number of plants) [3, 4]: 0; Resistance evaluation [3, 5]: Moderately; Scores (pesticide damage) [3, 5]: 33; Classification and statistics of the grade of pesticide damage: Grade 0 (number of plants) [3, 5]: 1; Classification and statistics of the grade of pesticide damage: Grade 1 (number of plants) [3, 5]: 14; Classification and statistics of the grade of pesticide damage: Grade 2 (number of plants) [3, 5]: 1; Classification and statistics of the grade of pesticide damage: Grade 3 (number of plants) [3, 5]: 0 |
| HvHPPDm-F372A-02: nucleotide sequence encoding Hordeum vulgare HPPD with F372A; vector DBN11763 (nucleic acid, HvHPPDm-F372A-02 Nucleotide Sequence, vector DBN11763) DNA: ATGCCGCCGACGCCCACCACCCCAGCAGCTACCGGAGCTGCGGCTGCAGTAACCCCTGAGCATGCTCGGCCCCACAGGATGGTGAGGTTTAATCCAAGATCAGATCGTTTTCATACACTCTCGTTCCACCATGTTGAGTTCTGGTGCGCCGACGCGGCTTCAGCGGCCGGGAGGTTCGCCTTCGCGCTGGGGGCCCCTCTTGCCGCGCGTAGTGATTTGTCTACTGGGAATTCAGCGCACGCGTCCCAGCTTCTCCGAAGCGGCAGTCTCGCCTTTCTCTTCACTGCACCATATGCAAATGGATGTGATGCAGCAACTGCTTCCCTGCCGAGCTTTTCTGCGGATGCCGCGAGGCGATTCAGTGCTGACCATGGGATCGCCGTCCGGTCAGTTGCTCTTAGAGTGGCTGATGCTGCTGAGGCATTCAGGGCTTCAAGGCGTCGTGGTGCACGCCCGGCGTTTGCCCCGGTTGATCTTGGGCGGGGGTTTGCTTTTGCAGAGGTGGAGCTGTACGGCGACGTGGTGCTCCGATTTGTTTCTCACCCGGACGGCACTGATGTGCCCTTCTTGCCAGGATTTGAAGGTGTGACCAACCCTGATGCCGTGGATTATGGACTCACAAGATTTGATCATGTGGTTGGCAATGTTCCTGAATTGGCACCTGCTGCCGCTTACATCGCAGGTTTTACTGGCTTCCATGAATTTGCTGAATTCACGGCGGAGGATGTTGGTACAACTGAGTCAGGGCTGAACAGTGTTGTTTTAGCCAACAACTCAGAAGGAGTTCTCCTTCCCTTGAATGAACCTGTTCATGGAACCAAGCGCCGCTCCCAAATTCAAACATTTCTTGAGCACCACGGCGGCCCTGGTGTTCAACATATTGCTGTCGCCTCTAGCGACGTCCTGCGTACATTACGCAAGATGAGGGCTCGGTCCGCAATGGGTGGTTTCGACTTCCTCCCTCCACCATTGCCAAAATATTATGAAGGCGTCAGAAGACTTGCAGGAGATGTCCTCTCTGAAGCTCAGATCAAGGAGTGCCAAGAACTTGGCGTCTTGGTTGATAGAGATGACCAAGGAGTACTTCTGCAGATAGCCACAAAACCCGTTGGTGACAGGCCAACTCTTTTCCTGGAGATGATTCAGAGAATTGGCTGCATGGAGAAAGATGAAAGAGGCGAGGAGTACCAGAAGGGTGGTTGTGGAGGCTTTGGAAAAGGAAACTTCTCAGAGCTGTTCAAGTCCATAGAAGATTACGAGAAAAGTCTAGAAGCCAAGCAGTCTGCTGCAGTGCAAGGTTCCTGA | 15 | 1 | 0 | 0 | 8 | 8 | 0 | 0 | 2 | 17 | highly | moderately | Highly resistant | 15 | 9 | 7 | 0 | 0 | Poorly resistant | 56 | Grade 0 (classification and statistics of the grade of pesticide damage; number of plants) ([2]; mesotrione 105 g ai/ha): 0; Grade 1 (classification and statistics of the grade of pesticide damage; number of plants) ([2]; mesotrione 105 g ai/ha): 9; Grade 2 (classification and statistics of the grade of pesticide damage; number of plants) ([2]; mesotrione 105 g ai/ha): 3; Grade 3 (classification and statistics of the grade of pesticide damage; number of plants) ([2]; mesotrione 105 g ai/ha): 4; Resistance evaluation [3, 4]: Moderately; Scores (pesticide damage) [3, 4]: 33; Classification and statistics of the grade of pesticide damage: Grade 0 (number of plants) [3, 4]: 1; Classification and statistics of the grade of pesticide damage: Grade 1 (number of plants) [3, 4]: 14; Classification and statistics of the grade of pesticide damage: Grade 2 (number of plants) [3, 4]: 1; Classification and statistics of the grade of pesticide damage: Grade 3 (number of plants) [3, 4]: 0; Resistance evaluation [3, 5]: Poorly; Scores (pesticide damage) [3, 5]: 44; Classification and statistics of the grade of pesticide damage: Grade 0 (number of plants) [3, 5]: 0; Classification and statistics of the grade of pesticide damage: Grade 1 (number of plants) [3, 5]: 12; Classification and statistics of the grade of pesticide damage: Grade 2 (number of plants) [3, 5]: 3; Classification and statistics of the grade of pesticide damage: Grade 3 (number of plants) [3, 5]: 1 |
